Common to all, as to test: ELISA, antigen coated at 1 ug/ml, binder titrated from 10 ug/ml, OD450
A general note: In an ELISA, binding on a coated surface is turned into a signal by an enzyme label.

In assay [1] the target is T1, CD3-CD70 BsM_M.
T1 construct: N-glycosylated; also called anti-CD3/CD70 bispecific molecule of monomeric form

The target of assay [2] is T2, CD3-CD70 BsM_D.
T2 construct: glycosylated, disulfide-linked dimer; also called anti-CD3/CD70 bispecific molecule of dimeric form

The target in assay [3] is T3, CD3-OX40L BsM_M.
T3 construct: N-glycosylated; also called anti-CD3/OX40L bispecific molecule of monomeric form

Assay [4] has as its target T4, CD3-OX40L BsM_D.
T4 construct: glycosylated, disulfide-linked dimer; also called anti-CD3/OX40L bispecific molecule of dimeric form

Assay [5] deals with T5, CD3-B7RP-1 BsM_D.
T5 construct: glycosylated, disulfide-linked dimer; also called anti-CD3/B7RP-1 bispecific molecule of dimeric form

For assay [6], the target named is T6, CD3-B7RP-1 BsM_M.
T6 construct: N-glycosylated on the B7RP-1 part; also called anti-CD3/B7RP-1 bispecific molecule of monomeric form

Assay [7] concerns the target T7, CD3-GITRL BsM_D.
T7 construct: glycosylated, disulfide-linked dimer; also called anti-CD3/GITRL bispecific molecule of dimeric form

The target of assay [8] is T8, CD3-GITRL BsM_M.
T8 construct: glycosylated; also called anti-CD3/GITRL bispecific molecule of monomeric form

These results are taken from patent publication US20230242876A1 (SHANGHAI SINOBIO BIOTECH, published 2023).

B1: human CD27-hFc recombinant protein (Fc fusion)
chain: TPAPKSCPERHYWAQGKLCCQMCEPGTFLVKDCDQHRKAAQCDPCIPGVSFSPDHHTRPHCESCRHCNSGLLVRNCTITANAECACRNGWQCRDKECTECDPLPNPSLTARSSQALSPHPQPTHLPYVSEMLEARTAGHMQTLADFRQLPARTLSTHWPPQRSLCSSDFIR
notes: Purchased from Novoprotein; also called CD27-hFc recombinant antigen; not shown: human Fc (hFc) of the purchased fusion
Take B1: the binding result in assay [1] and in assay [2] was “binds” each time.

B2: human OX40-hFc recombinant protein (Fc fusion)
chain: LHCVGDTYPSNDRCCHECRPGNGMVSRCSRSQNTVCRPCGPGFYNDVVSSKPCKPCTWCNLRSGSERKQLCTATQDTVCRCRAGTQPLDSYKPGVDCAPCPPGHFSPGDNQACKPWTNCTLAGKHTLQPASNSSDAICEDRDPPATQPQETQGPPARPITVQPTEAWPRTSQGPSTRPVEVPGGRA
notes: Purchased from Novoprotein; also called OX40-hFc recombinant antigen; not shown: human Fc (hFc) of the purchased fusion
Regarding B2, the binding result in assay [3] and in assay [4] was “binds” each time.

B3: human ICOS-hFc recombinant protein (Fc fusion)
chain: EINGSANYEMFIFHNGGVQILCKYPDIVQQFKMQLLKGGQILCDLTKTKGSGNTVSIKSLKFCHSQLSNNSVSFFLYNLDHSHANYYFCNLSIFDPPPFKVTLTGGYLHIYESQLCCQLK
notes: Purchased from Novoprotein; also called ICOS-hFc recombinant antigen; not shown: human Fc (hFc) of the purchased fusion
Regarding B3, the binding result in assay [5] and in assay [6] was “binds” in each case.

B4: human GITR-hFc recombinant protein (Fc fusion)
chain: QRPTGGPGCGPGRLLLGTGTDARCCRVHTTRCCRDYPGEECCSEWDCMCVQPEFHCGDPCCTTCRHHPCPPGQGVQSQGKFSFGFQCIDCASGTFSGGHEGHCKPWTDCTQFGFLTVFPGNKTHNAVCVPGSPPAE
notes: Purchased from Novoprotein; also called GITR-hFc recombinant antigen; not shown: human Fc (hFc) of the purchased fusion
Take B4: the binding result in assay [7] and in assay [8] was “binds” each time.
